Data reported in PMC6739602, “Intestinal Gel-Forming Mucins Polymerize by Disulfide-Mediated Dimerization of D3 Domains” (Journal of Molecular Biology, 2019).

B1: MUC2D3, mucin 2 recombinant protein spanning residues 858 to 1259 (domain or fragment)
chain: APGTCSIYGSGHYITFDGKYYDFDGHCSYVAVQDYCGQNSSLGSFSIITENVPCGTTGVTCSKAIKIFMGRTELKLEDKHRVVIQRDEGHHVAYTTREVGQYLVVESSTGIIVIWDKRTTVFIKLAPSYKGTVCGLCGNFDHRSNNDFTTRDHMVVSSELDFGNSWKEAPTCPDVSTNPEPCSLNPHRRSWAEKQCSILKSSVFSICHSKVDPKPFYEACVHDSCSCDTGGDCECFCSAVASYAQECTKEGACVFWRTPDLCPIFCDYYNPPHECEWHYEPCGNRSFETCRTINGIHSNISVSYLEGCYPRCPKDRPIYEEDLKKCVTADKCGCYVEDTHYPPGASVPTEETCKSCVCTNSSQVVCRPEEGKILNQTQDGAFCYWEICGPNGTVEKHFNICSIT
modifications: N-linked glycans (six potential N-linked glycosylation sites); for the crystals endoH-treated to leave only a monosaccharide at glycosylated asparagines; intersubunit disulfides C1088-C1088 and C1130-C1130
notes: cleavage is predicted to occur between the two adjacent alanines; mucin 2 (MUC2), human, Uniprot Q02817, residues 858 to 1259 (VWD3, C8-3, TIL-3 and E-3 domains); Expressed in pcDNA3.1 downstream of the QSOX1 signal peptide; kifunensine/EndoH-treated protein gave the crystals of the solved structure; Disulfide-linked homodimer; also called mucin 2 multimerization module; MUC2 region spanning the …
B2: D1D2D3CysD1, mucin 2 recombinant protein spanning residues 21 to 1397 (domain or fragment, human, UniProt Q02817 21-1397, looked up)
chain: SELQTEGRTRNHGHNVCSTWGNFHYKTFDGDVFRFPGLCDYNFASDCRGSYKEFAVHLKRGPGQAEAPAGVESILLTIKDDTIYLTRHLAVLNGAVVSTPHYSPGLLIEKSDAYTKVYSRAGLTLMWNREDALMLELDTKFRNHTCGLCGDYNGLQSYSEFLSDGVLFSPLEFGNMQKINQPDVVCEDPEEEVAPASCSEHRAECERLLTAEAFADCQDLVPLEPYLRACQQDRCRCPGGDTCVCSTVAEFSRQCSHAGGRPGNWRTATLCPKTCPGNLVYLESGSPCMDTCSHLEVSSLCEEHRMDGCFCPEGTVYDDIGDSGCVPVSQCHCRLHGHLYTPGQEITNDCEQCVCNAGRWVCKDLPCPGTCALEGGSHITTFDGKTYTFHGDCYYVLAKGDHNDSYALLGELAPCGSTDKQTCLKTVVLLADKKKNVVVFKSDGSVLLNELQVNLPHVTASFSVFRPSSYHIMVSMAIGVRLQVQLAPVMQLFVTLDQASQGQVQGLCGNFNGLEGDDFKTASGLVEATGAGFANTWKAQSSCHDKLDWLDDPCSLNIESANYAEHWCSLLKKTETPFGRCHSAVDPAEYYKRCKYDTCNCQNNEDCLCAALSSYARACTAKGVMLWGWREHVCNKDVGSCPNSQVFLYNLTTCQQTCRSLSEADSHCLEGFAPVDGCGCPDHTFLDEKGRCVPLAKCSCYHRGLYLEAGDVVVRQEERCVCRDGRLHCRQIRLIGQSCTAPKIHMDCSNLTALATSKPRALSCQTLAAGYYHTECVSGCVCPDGLMDDGRGGCVVEKECPCVHNNDLYSSGAKIKVDCNTCTCKRGRWVCTQAVCHGTCSIYGSGHYITFDGKYYDFDGHCSYVAVQDYCGQNSSLGSFSIITENVPCGTTGVTCSKAIKIFMGRTELKLEDKHRVVIQRDEGHHVAYTTREVGQYLVVESSTGIIVIWDKRTTVFIKLAPSYKGTVCGLCGNFDHRSNNDFTTRDHMVVSSELDFGNSWKEAPTCPDVSTNPEPCSLNPHRRSWAEKQCSILKSSVFSICHSKVDPKPFYEACVHDSCSCDTGGDCECFCSAVASYAQECTKEGACVFWRTPDLCPIFCDYYNPPHECEWHYEPCGNRSFETCRTINGIHSNISVSYLEGCYPRCPKDRPIYEEDLKKCVTADKCGCYVEDTHYPPGASVPTEETCKSCVCTNSSQVVCRPEEGKILNQTQDGAFCYWEICGPNGTVEKHFNICSITTRPSTLTTFTTITLPTTPTTFTTTTTTTTPTSSTVLSTTPKLCCLWSDWINEDHPSSGSDDGDRETFDGVCGAPEDIECRSVKDPHLSLEQLGQKVQCDVSVGFICKNEDQFGNGPFGLCYDYKIRVNCCWPMDKCIT
notes: mucin 2 (MUC2), human, Uniprot Q02817, residues 21 to 1397 (includes the CysD1 domain following a short threonine-rich segment); Probably made with the same QSOX1 signal peptide as MUC2D3, which would leave Ala-Pro at the N-terminus; also called the largest fragment; source: HEK293F, produced and purified essentially as for MUC2D3 (no kifunensine; preparative gel filtration in 10 mM Hepes pH 7.5, …)
B3: D1D2D3, mucin 2 recombinant protein spanning residues 21 to 1259 (domain or fragment, human, UniProt Q02817 21-1259, looked up)
chain: SELQTEGRTRNHGHNVCSTWGNFHYKTFDGDVFRFPGLCDYNFASDCRGSYKEFAVHLKRGPGQAEAPAGVESILLTIKDDTIYLTRHLAVLNGAVVSTPHYSPGLLIEKSDAYTKVYSRAGLTLMWNREDALMLELDTKFRNHTCGLCGDYNGLQSYSEFLSDGVLFSPLEFGNMQKINQPDVVCEDPEEEVAPASCSEHRAECERLLTAEAFADCQDLVPLEPYLRACQQDRCRCPGGDTCVCSTVAEFSRQCSHAGGRPGNWRTATLCPKTCPGNLVYLESGSPCMDTCSHLEVSSLCEEHRMDGCFCPEGTVYDDIGDSGCVPVSQCHCRLHGHLYTPGQEITNDCEQCVCNAGRWVCKDLPCPGTCALEGGSHITTFDGKTYTFHGDCYYVLAKGDHNDSYALLGELAPCGSTDKQTCLKTVVLLADKKKNVVVFKSDGSVLLNELQVNLPHVTASFSVFRPSSYHIMVSMAIGVRLQVQLAPVMQLFVTLDQASQGQVQGLCGNFNGLEGDDFKTASGLVEATGAGFANTWKAQSSCHDKLDWLDDPCSLNIESANYAEHWCSLLKKTETPFGRCHSAVDPAEYYKRCKYDTCNCQNNEDCLCAALSSYARACTAKGVMLWGWREHVCNKDVGSCPNSQVFLYNLTTCQQTCRSLSEADSHCLEGFAPVDGCGCPDHTFLDEKGRCVPLAKCSCYHRGLYLEAGDVVVRQEERCVCRDGRLHCRQIRLIGQSCTAPKIHMDCSNLTALATSKPRALSCQTLAAGYYHTECVSGCVCPDGLMDDGRGGCVVEKECPCVHNNDLYSSGAKIKVDCNTCTCKRGRWVCTQAVCHGTCSIYGSGHYITFDGKYYDFDGHCSYVAVQDYCGQNSSLGSFSIITENVPCGTTGVTCSKAIKIFMGRTELKLEDKHRVVIQRDEGHHVAYTTREVGQYLVVESSTGIIVIWDKRTTVFIKLAPSYKGTVCGLCGNFDHRSNNDFTTRDHMVVSSELDFGNSWKEAPTCPDVSTNPEPCSLNPHRRSWAEKQCSILKSSVFSICHSKVDPKPFYEACVHDSCSCDTGGDCECFCSAVASYAQECTKEGACVFWRTPDLCPIFCDYYNPPHECEWHYEPCGNRSFETCRTINGIHSNISVSYLEGCYPRCPKDRPIYEEDLKKCVTADKCGCYVEDTHYPPGASVPTEETCKSCVCTNSSQVVCRPEEGKILNQTQDGAFCYWEICGPNGTVEKHFNICSIT
notes: mucin 2 (MUC2), human, Uniprot Q02817, residues 21 to 1259; Probably made with the same QSOX1 signal peptide as MUC2D3, which would leave Ala-Pro at the N-terminus; also called MUC2 D1D2D3; source: HEK293F, produced and purified essentially as for MUC2D3 (no kifunensine; preparative gel filtration in 10 mM Hepes pH 7.5, 20 mM NaCl); not shown: His6, C-terminal, kept

What was measured:
[1] = biological target: the molecule itself; assay: SEC-MALS; Superdex 200 Increase 10/300 column, 0.5 ml/min, 25 mM Hepes (pH 7.4), 250 mM NaCl, 0.02% sodium azide
[2] = biological target: the molecule itself; assay: SEC-MALS; Superose 6 10/300 column, 0.5 ml/min, 10 mM Tris (pH 7.4), 20 mM NaCl, 0.02% sodium azide

Protein	stoichiometry N [1]	stoichiometry N [2]
B1	2	
B2		2
B3		2
